The text below walks through data of IntAct's records for PubMed 29892012.

To fix the notation:
B1: Keratin, type I cuticular Ha8 (Homo sapiens), O76015 (parent)
chain: MTSSYSSSSCPLGCTMAPGARNVSVSPIDIGCQPGAEANIAPMCLLANVAHANRVRVGSTPLGRPSLCLPPTCHTACPLPGTCHIPGNIGICGAYGENTLNGHEKETMQFLNDRLANYLEKVRQLEQENAELEATLLERSKCHESTVCPDYQSYFHTIEELQQKILCSKAENARLIVQIDNAKLAADDFRIKLESERSLRQLVEADKCGTQKLLDDATLAKADLEAQQESLKEEQLSLKSNHEQEVKILRSQLGEKLRIELDIEPTIDLNRVLGEMRAQYEAMLETNRQDVEQWFQAQSEGISLQDMSCSEELQCCQSEILELRCTVNALEVERQAQHTLKDCLQNSLCEAEDRFGTELAQMQSLISNVEEQLSEIRADLERQNQEYQVLLDVKTRLENEIATYRNLLESEDCKLPCNPCSTSPSCVTAPCAPRPSCGPCTTCGPTCGASTTGSRF
partner: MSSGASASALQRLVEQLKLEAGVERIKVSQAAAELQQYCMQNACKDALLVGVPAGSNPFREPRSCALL
B2: Vacuolar protein-sorting-associated protein 25 (Homo sapiens), Q9BRG1 (parent)
chain: MAMSFEWPWQYRFPPFFTLQPNVDTRQKQLAAWCSLVLSFCRLHKQSSMTVMEAQESPLFNNVKLQRKLPVESIQIVLEELRKKGNLEWLDKSKSSFLIMWRRPEEWGKLIYQWVSRSGQNNSVFTLYELTNGEDTEDEEFHGLDEATLLRALQALQQEHKAEIITVSDGRGVKFF
partner: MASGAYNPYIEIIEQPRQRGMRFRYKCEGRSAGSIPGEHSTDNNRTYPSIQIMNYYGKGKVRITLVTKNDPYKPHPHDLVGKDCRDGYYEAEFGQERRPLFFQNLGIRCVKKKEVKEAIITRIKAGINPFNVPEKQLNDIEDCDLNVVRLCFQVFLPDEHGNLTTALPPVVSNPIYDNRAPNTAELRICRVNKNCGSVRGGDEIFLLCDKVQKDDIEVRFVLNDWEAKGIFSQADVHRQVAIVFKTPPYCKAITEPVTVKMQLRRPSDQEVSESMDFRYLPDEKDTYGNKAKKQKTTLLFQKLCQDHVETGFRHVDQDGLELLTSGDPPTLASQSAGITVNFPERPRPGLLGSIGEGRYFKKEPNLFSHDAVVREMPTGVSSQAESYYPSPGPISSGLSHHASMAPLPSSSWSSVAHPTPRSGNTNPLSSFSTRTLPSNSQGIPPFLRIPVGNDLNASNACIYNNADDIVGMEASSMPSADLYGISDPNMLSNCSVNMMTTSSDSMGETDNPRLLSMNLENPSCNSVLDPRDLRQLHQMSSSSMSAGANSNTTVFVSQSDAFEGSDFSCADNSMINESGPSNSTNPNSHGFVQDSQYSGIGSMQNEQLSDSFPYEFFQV
B3: Casein kinase II subunit alpha (Homo sapiens), P68400 (parent)
chain: MSGPVPSRARVYTDVNTHRPREYWDYESHVVEWGNQDDYQLVRKLGRGKYSEVFEAINITNNEKVVVKILKPVKKKKIKREIKILENLRGGPNIITLADIVKDPVSRTPALVFEHVNNTDFKQLYQTLTDYDIRFYMYEILKALDYCHSMGIMHRDVKPHNVMIDHEHRKLRLIDWGLAEFYHPGQEYNVRVASRYFKGPELLVDYQMYDYSLDMWSLGCMLASMIFRKEPFFHGHDNYDQLVRIAKVLGTEDLYDYIDKYNIELDPRFNDILGRHSRKRWERFVHSENQHLVSPEALDFLDKLLRYDHQSRLTAREAMEHPYFYTVVKDQARMGSSSMPGGSTPVSSANMMSGISSVPTPSPLGPLAGSPVIAAANPLGMPVPAAAGAQQ
partner: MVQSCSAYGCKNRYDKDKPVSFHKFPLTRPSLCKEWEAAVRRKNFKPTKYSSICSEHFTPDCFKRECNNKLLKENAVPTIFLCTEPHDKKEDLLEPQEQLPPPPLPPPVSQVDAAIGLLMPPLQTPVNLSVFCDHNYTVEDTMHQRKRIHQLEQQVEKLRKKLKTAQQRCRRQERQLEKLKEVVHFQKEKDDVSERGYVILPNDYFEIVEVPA
B4: Keratin, type I cuticular Ha8 (Homo sapiens), O76015 (parent)
chain: B1 chain
partner: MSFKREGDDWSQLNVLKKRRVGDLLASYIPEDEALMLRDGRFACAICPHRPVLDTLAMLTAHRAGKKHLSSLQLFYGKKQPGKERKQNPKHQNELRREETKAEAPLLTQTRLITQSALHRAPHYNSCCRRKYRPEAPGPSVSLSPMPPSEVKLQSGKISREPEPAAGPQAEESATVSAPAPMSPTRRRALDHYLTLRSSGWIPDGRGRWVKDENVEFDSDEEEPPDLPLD

Variants of B1 are the subject of one test. As to conditions: with gbg10_human GNG10, P50151.
Take D306A: the “effect of a mutation on the interaction” value is recorded as “with no effect”.

In a further test the parent is B2. As to conditions: with rel_human REL.
For the variant P58Q, the “effect of a mutation on the interaction” value is given as “disrupting interaction strength”.

In the next test the parent is B3. As to conditions: with thap1_human THAP1, Q9NVV9.
Take K198R: the “effect of a mutation on the interaction” value is recorded as “with no effect”.

The variants in the next test derive from B4. As to conditions: with scnm1_human SCNM1, Q9BWG6.
Consider N270K, for which the “effect of a mutation on the interaction” value is listed as “with no effect”.

In a further test the parent is B4. As to conditions: with scnm1_human SCNM1, Q9BWG6. This is another data set of the same source.
As to D306A, the “effect of a mutation on the interaction” value is listed as “with no effect”.
